Data published in patent publication US20240075157A1.

Key:
hFcγR3B (human) [1] = target: hFcγR3B (human) (UniProt O75015); experiment: BLI, FcR3B, 600nM IgG
[2] = target: human FcγR1 (hFcγR1) (human) (UniProt P12314); experiment: BLI, FcR1, 50nM IgG
hFcγR2A 167H (human) [3] = target: hFcγR2A 167H (human) (UniProt P12318); experiment: BLI, FcR2A 167H, 600nM IgG
[4] = target: human FcγR1 (hFcγR1) (human) (UniProt P12314); experiment: BLI, FcR1, 10nM IgG
hFcγR2A 167R (human) [5] = target: hFcγR2A 167R (human) (UniProt P12318); experiment: BLI, FcR2A 167R, 450nM IgG
hFcγR2A 167R (human), sequence (P12318 36-218 H167R): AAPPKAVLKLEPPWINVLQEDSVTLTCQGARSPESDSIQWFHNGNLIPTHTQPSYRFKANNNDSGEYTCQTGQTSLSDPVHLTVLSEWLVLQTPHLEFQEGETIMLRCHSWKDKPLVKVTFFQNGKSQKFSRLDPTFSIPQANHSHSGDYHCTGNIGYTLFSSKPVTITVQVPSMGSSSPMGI

[6] = target: human FcγR1 (hFcγR1) (human) (UniProt P12314); experiment: BLI, FcR1, 25nM IgG
hFcγR2A 167R (human) [7] = target: hFcγR2A 167R (human) (UniProt P12318); experiment: BLI, FcR2A 167R, 600nM IgG
hFcγR2A 167H (human) [8] = target: hFcγR2A 167H (human) (UniProt P12318); experiment: BLI, FcR2A 167H, 450nM IgG
hFcγR3B (human) [9] = target: hFcγR3B (human) (UniProt O75015); experiment: BLI, FcR3B, 450nM IgG
hFcγR2B (human) [10] = target: hFcγR2B (human) (UniProt P31994); experiment: BLI, FcR2B, 450nM IgG
hFcγR2B (human), sequence (P31994 46-217): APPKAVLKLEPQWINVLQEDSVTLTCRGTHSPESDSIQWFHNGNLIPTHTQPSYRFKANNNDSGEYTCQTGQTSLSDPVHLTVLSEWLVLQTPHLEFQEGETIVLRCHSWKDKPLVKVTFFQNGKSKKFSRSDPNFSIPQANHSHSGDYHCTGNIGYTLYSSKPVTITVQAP

hFcγR2B (human) [11] = target: hFcγR2B (human) (UniProt P31994); experiment: BLI, FcR2B, 600nM IgG
[12] = target: human FcγR1 (hFcγR1) (human) (UniProt P12314); experiment: BLI, Hu Fc1
hFcγR2A 167H (human) [13] = target: hFcγR2A 167H (human) (UniProt P12318); experiment: BLI, Hu Fc2A 167H
hFcγR2B (human) [14] = target: hFcγR2B (human) (UniProt P31994); experiment: BLI, Hu Fc2B
Hu Fc3A 176F = experiment: BLI, Hu Fc3A 176F
Hu Fc3A 176F, sequence (chain, as listed by the source limits assumed): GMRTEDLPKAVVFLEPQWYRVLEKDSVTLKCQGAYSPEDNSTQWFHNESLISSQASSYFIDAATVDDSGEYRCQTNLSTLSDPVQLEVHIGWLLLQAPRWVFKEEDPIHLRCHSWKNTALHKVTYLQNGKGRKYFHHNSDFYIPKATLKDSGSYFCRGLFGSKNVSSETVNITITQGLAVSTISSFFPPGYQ

hFcγR2A 167R (human) [15] = target: hFcγR2A 167R (human) (UniProt P12318); experiment: BLI, Hu Fc2A 167R
[16] = target: cynomolgus FcγRI (cyno FcγR1) (cynomolgus); experiment: BLI, His-cyno FcR1
cynomolgus FcγRI (cyno FcγR1) (cynomolgus), sequence (A0A2K5 entry or part of it limits assumed): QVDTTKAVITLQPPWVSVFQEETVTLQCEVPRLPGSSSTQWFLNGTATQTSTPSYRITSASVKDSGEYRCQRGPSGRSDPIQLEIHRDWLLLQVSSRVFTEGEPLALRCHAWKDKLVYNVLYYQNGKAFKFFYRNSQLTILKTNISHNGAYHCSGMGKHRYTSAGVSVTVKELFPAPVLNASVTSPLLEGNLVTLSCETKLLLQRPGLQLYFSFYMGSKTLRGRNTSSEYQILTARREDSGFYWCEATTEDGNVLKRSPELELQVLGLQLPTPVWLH

[17] = target: human FcγR1 (hFcγR1) (human) (UniProt P12314); experiment: BLI, Bio-hFcR1
[18] = target: human FcγR1 (hFcγR1) (human) (UniProt P12314); experiment: BLI, His-hFcR1
hFcγR2A 167R (human) [19] = target: hFcγR2A 167R (human) (UniProt P12318); experiment: BLI, Bio-hFcR2A 167R
hFcγR2A 167H (human) [20] = target: hFcγR2A 167H (human) (UniProt P12318); experiment: BLI, Bio hFcR2A 167H
hFcγR2B (human) [21] = target: hFcγR2B (human) (UniProt P31994); experiment: BLI, Bio-hFcR2B
hFcγR3A 176V (human) = hFcγR3A 176V (human) (UniProt P08637); experiment: BLI, Hu Fc3A 176V
hFcγR3A 176V (human), sequence (P08637 17-208 F176V limits assumed): as the sequence (chain, as listed by the source limits assumed) above, with F160V counted along it

hFcγR2A 167H (human), sequence (P12318 36-218): as the sequence (P12318 36-218 H167R) above, with R132H counted along it
human FcγR1 (hFcγR1) (human), sequence (P12314 16-288 limits assumed): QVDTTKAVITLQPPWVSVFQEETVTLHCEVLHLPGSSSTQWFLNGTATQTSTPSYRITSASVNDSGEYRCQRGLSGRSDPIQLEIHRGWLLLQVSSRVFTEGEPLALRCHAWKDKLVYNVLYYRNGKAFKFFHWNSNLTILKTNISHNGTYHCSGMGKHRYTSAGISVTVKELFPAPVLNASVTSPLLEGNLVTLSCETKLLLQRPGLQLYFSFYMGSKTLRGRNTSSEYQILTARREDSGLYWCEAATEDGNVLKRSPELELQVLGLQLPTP
hFcγR3B (human), sequence (O75015 17-200 limits assumed): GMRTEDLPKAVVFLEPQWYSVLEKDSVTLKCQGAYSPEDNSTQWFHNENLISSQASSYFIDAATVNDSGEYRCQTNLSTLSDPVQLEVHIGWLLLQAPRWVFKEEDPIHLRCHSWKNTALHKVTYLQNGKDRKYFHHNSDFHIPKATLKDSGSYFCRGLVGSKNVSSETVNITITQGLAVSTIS

Substance	normalized binding response [12]	normalized binding response (hFcγR2A 167H (human) [13])	normalized binding response (hFcγR2B (human) [14])	normalized binding response (Hu Fc3A 176F)	normalized binding response (hFcγR2A 167R (human) [15])	further results
naked (un-conjugated) antibody (i.e., the isotype control) of FIGS. 1D and 1E						% Binding vs Wild Type hIgG1 (hFcγR3B (human) [1]): 100%; % Binding vs Wild Type hIgG1 [2]: 100%; % Binding vs Wild Type hIgG1 (hFcγR2A 167H (human) [3]): 100%; % Binding vs Wild Type hIgG1 [4]: 100%; % Binding vs Wild Type hIgG1 (hFcγR2A 167R (human) [5]): 100%; % Binding vs Wild Type hIgG1 [6]: 100%; % Binding vs Wild Type hIgG1 (hFcγR2A 167R (human) [7]): 100%; % Binding vs Wild Type hIgG1 (hFcγR2A 167H (human) [8]): 100%; % Binding vs Wild Type hIgG1 (hFcγR3B (human) [9]): 100%; % Binding vs Wild Type hIgG1 (hFcγR2B (human) [10]): 100%; % Binding vs Wild Type hIgG1 (hFcγR2B (human) [11]): 100%
Ab5 D265A.H435A (antibody)	35 % of WT	3 % of WT	1 % of WT			
rIgG2a (rat IgG2a isotype control) (antibody)		3 % of WT	8 % of WT	1 % of WT	74 % of WT	
Isotype WT (antibody)						Normalized Response [16]: 82 % of WT; Normalized Response [17]: 91 % of WT; Normalized Response [18]: 85 % of WT; Normalized Response (hFcγR2A 167R (human) [19]): 102 % of WT; Normalized Response (hFcγR2A 167H (human) [20]): 90 % of WT; Normalized Response (hFcγR2B (human) [21]): 95 % of WT
Ab5 D265C.H435A (antibody)	33 % of WT		3 % of WT			
Ab5 (anti-CD45 antibody) D265C.N297A.H435A variant			2 % of WT			
Ab2 D265C N297Q (antibody)						Normalized Response [16]: 7 % of WT
Ab5 D265C.LALA.P329G.H435A (antibody)	4 % of WT			1 % of WT		
Ab5 LALA.P331G (antibody)			8 % of WT		1 % of WT	
YTH24.5 (anti-CD45 rIgG2b) (antibody)	121 % of WT	150 % of WT	120 % of WT	62 % of WT	56 % of WT	
Ab5 (anti-CD45 antibody) LALA variant		4 % of WT	3 % of WT	19 % of WT	2 % of WT	normalized binding response (hFcγR3A 176V (human)): 34 % of WT
Ab5 LALA.P329G (antibody)					2 % of WT	
Ab2 D265C N297Q H435A (antibody)						Normalized Response [16]: 7 % of WT
Ab5 (anti-CD45 antibody) D265A variant	40 % of WT	2 % of WT	2 % of WT			
Ab5 EPLVLAdelG (antibody)	1 % of WT	66 % of WT	10 % of WT	9 % of WT	15 % of WT	normalized binding response (hFcγR3A 176V (human)): 16 % of WT
Ab5 CH2 deleted (antibody)			1 % of WT			
